Source: the supplement of paper PMC10724198
± gives the standard deviation of the averaged measurements.

system: Saccharomyces cerevisiae; assay: protein stability index of tFT-peptide fusion (C-terminal peptide) (PSI (0-1 scale)); higher = more stable (slower turnover); conditions: genetic background: wild type; temperature: 30 C
Procedure: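 Multiplexed protein stability (MPS) profiling in S. cerevisiae. Random 12-aa peptides (tFT-X12 library) are fused to the C-terminus of a sfGFP-mCherry tandem fluorescent timer, after mCherry and a GGGS linker. Cells are FACS-sorted into 8 mCherry/sfGFP bins and deep-sequenced. The protein stability index (PSI) is the read-weighted bin average, scaled from 0 (unstable) to 1 (stable). Only peptides with >10 reads are reported; cells were grown at 30 °C in SC-His with glucose.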
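Also: PSI is a weighted mean of sequencing reads over stability bins, variants kept only with over 10 reads, mCherry proximal and sfGFP distal, peptide attached via GGGS linker.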

Sequence	protein stability index
ATILILHTSPQF	0.655 ± 0.041
AVAIGQGLSAGV	0.686 ± 0.053
AVCGPHLYPRVI	0.643 ± 0.022
AVCSLLVYAPDR	0.652 ± 0.059
AVGLCGARSLGG	0.634 ± 0.048
AVGPAGSQATIC	0.706 ± 0.1
AVGPLTGPRPPV	0.699 ± 0.073
AVGSAGRGRLGI	0.673 ± 0.0078
AVGVRSSGRVSI	0.7246 ± 0.0034
AVKRNDALGIQF	0.718 ± 0.046
AVLFDQLGGRWR	0.614 ± 0.061
AVLTDKKGRVRS	0.703 ± 0.036
AVLTLRAPPSAL	0.708 ± 0.025
AVPRPSPPPPPL	0.674 ± 0.0086
AVQESVSHSLVL	0.723 ± 0.0012
AVRLALAPQVGA	0.617 ± 0.018
AVRPGEAGCAGL	0.664 ± 0.12
AVRSILYRVATR	0.729 ± 0.06
AVVVDWLAQVLH	0.757 ± 0.068
AVYRPFPFRSGI	0.699 ± 0.015
AWCGGVVGVAWL	0.6661 ± 0.0062
AWCLLTRWDLLL	0.609 ± 0.0014
AYGVGQERWVRE	0.725 ± 0.061
AYKCLPAKGADS	0.695 ± 0.047
AYLCLLPPFFTV	0.674 ± 0.037

Sequence	protein stability index
AYQFLCFSGMIT	0.761 ± 0.27
AYSMMNLYNFAL	0.67 ± 0.014
AYVSLRASLLSS	0.633 ± 0.063
CAGRVWVGLCGV	0.685 ± 0.094
CARYFFLHPSLG	0.67961 ± 1.3e-05
CASPSPPPAPVL	0.68 ± 0.022
CCGLYLGAGCAY	0.674 ± 0.017
CCLFLACANFFV	0.551 ± 0.031
CCLSFMSPFFCF	0.75 ± 0.026
CCVSFFISFGGR	0.554 ± 0.03
CCVYFLSMFFVL	0.575 ± 0.026
CDCIAFISRSFS	0.675 ± 0.039
CDGPFRLVLGGG	0.672 ± 0.018
CDRVIGSRGVTY	0.688 ± 0.0071
CEAWLTDEGLRD	0.742 ± 0.016
CERHWADRNTSV	0.7445 ± 0.0064
CFCWLFLVGRAD	0.5734 ± 0.0024
CFCYSLSINLNL	0.522 ± 0.0072
CFGFAGVGSLSC	0.752 ± 0.13
CFGFSLKFGTGK	0.668 ± 0.033
CFKETLLKGSRQ	0.718 ± 0.034
CFLPACPSPGDS	0.737 ± 0.075
CFLPGFYFLFSI	0.561 ± 0.033
CFPLPRPLPYME	0.654 ± 0.12
CFSCLWVPLLPS	0.649 ± 0.008

Sequence	protein stability index
CFSMGKRGLRGR	0.686 ± 0.026
CFSSLRFCLPSV	0.686 ± 0.00021
CFVSFFWRCFFG	0.515 ± 0.045
CFWTSFVWPGCA	0.684 ± 0.00095
CGAGIYTRCTGR	0.6613 ± 0.001
CGALRLPSSREV	0.604 ± 0.021
CGGKTEKRKKYT	0.6062 ± 0.0034
CGGRKTPPPPRH	0.688 ± 0.054
CGGRWGTYYRRV	0.7 ± 0.042
CGGSCLQDGGWA	0.787 ± 0.1
CGHMSTSNANLS	0.687 ± 0.051
CGLGGLYLVLHD	0.671 ± 0.067
CGLRVVGVVGAP	0.712 ± 0.062
CGLSYSAVDLGV	0.684 ± 0.01
CGPRPDSIDVGF	0.608 ± 0.052
CGRFCLQGEYIV	0.705 ± 0.12
CGRPRGVEPGGA	0.754 ± 0.12
CGSDRINACVRI	0.727 ± 0.032
CGSVEVVVVRGS	0.587 ± 0.054
CGTPDLGLLRAT	0.74 ± 0.054
CGVSPPHANLVS	0.569 ± 0.036
CGVVSSSVDCIN	0.699 ± 0.028
CHYSSFISFVVV	0.594 ± 0.024
CICFLDGCSFVN	0.755 ± 0.14
CIFCCGWCLDRL	0.719 ± 0.058

Sequence	protein stability index
CIFFSPFSFLLP	0.654 ± 0.035
CILPFFFFVSPD	0.652 ± 0.084
CIRGFQVRGYFK	0.791 ± 0.19
CIVDFLGISSGI	0.659 ± 0.057
CKKGCTEVKNAV	0.719 ± 0.084
CLAPSIPPPLSS	0.702 ± 0.036
CLFPPTARHSFP	0.778 ± 0.036
CLFPPYDYFFPF	0.734 ± 0.091
CLGPDWWARRSI	0.772 ± 0.064
CLGRLRLMSSCR	0.688 ± 0.044
CLLAAMTFYTVR	0.711 ± 0.029
CLPSLPPFPASL	0.738 ± 0.064
CLQRPVSAGMVT	0.676 ± 0.027
CLSGVLDFLLFL	0.648 ± 0.0085
CLSILRNVVPII	0.723 ± 0.08
CLSLVCGFPVVY	0.605 ± 0.0099
CLTHLLPPAFPC	0.694 ± 0.018
CMEYFMHFVKGD	0.701 ± 0.06
CMFRCCLRSLVL	0.639 ± 0.0064
CMGASRTRILTR	0.681 ± 0.046
CNCGGRGCGWMR	0.651 ± 0.025
CNDAYKSKLARL	0.696 ± 0.034
CNGVGRLPGTPG	0.685 ± 0.0086
CNQRRWRGRKGY	0.67 ± 0.01
CPCAWFSFLCFS	0.666 ± 0.0066

Sequence	protein stability index
CPPPFLCSPFVA	0.669 ± 0.022
CPPPPPRPPLPP	0.689 ± 0.056
CPPVRLSLPPSL	0.68 ± 0.019
CPSSFSALSNSR	0.671 ± 0.049
CQFHHHPDLTIK	0.609 ± 0.077
CRASGGVSCGAS	0.639 ± 0.046
CRCTKVVVFGYP	0.667 ± 0.022
CRGPTQFAGPAP	0.68 ± 0.088
CRILSPLPAIFV	0.5298 ± 0.0045
CRLILLVCNGAG	0.521 ± 0.027
CRSGSGGGIRGR	0.741 ± 0.011
CRSRRPFGSDPI	0.69 ± 0.019
CRTGHCRLTSKM	0.708 ± 0.019
CRVWRAPSGWVG	0.646 ± 0.03
CRWRLGRLARCA	0.515 ± 0.0084
CSATVLSNCTFP	0.687 ± 0.051
CSEHFLIDTYPA	0.679 ± 0.05
CSLGCSLSALDS	0.663 ± 0.025
CSMGGWPTERGI	0.6968 ± 0.0039
CSPGLSGCVSYV	0.665 ± 0.12
CSRDWRCNVRPV	0.715 ± 0.022
CSSEGFSLASMI	0.707 ± 0.025
CSWNLLAHPPAQ	0.744 ± 0.0093
CSYIQTSKTVVS	0.756 ± 0.082
CTAVGFISFWMA	0.629 ± 0.081

Sequence	protein stability index
CTIAPSIFFTRG	0.704 ± 0.11
CTVWGLWRGWTA	0.7389 ± 0.0041
CVAGSGRGGVKR	0.6327 ± 0.0037
CVCHWTALCIQI	0.512 ± 0.013
CVFSEMIVCDGG	0.566 ± 0.049
CVGQYVHWDLLV	0.549 ± 0.011
CVIGDKRRSKAI	0.6808 ± 0.0021
CVLPVSVIWVLR	0.575 ± 0.018
CVLVGGVPAGGG	0.6174 ± 0.0028
CVLWLISLLPDR	0.563 ± 0.068
CVRPAPGSGGWQ	0.6429 ± 0.0041
CVTLPPHPLPPP	0.6623 ± 0.0058
CWGGRSYVYNIG	0.662 ± 0.016
CWNVLVPFDEVI	0.6 ± 0.08
CWSRLADSFVSL	0.683 ± 0.05
CYGFCVRTYPAI	0.684 ± 0.037
CYLSVGVASWNS	0.6816 ± 0.0026
DAACDSGLSAEW	0.722 ± 0.015
DAAFRMTRLVVR	0.6172 ± 0.0015
DAGRETGRLVGG	0.708 ± 0.032
DAIHSPALLASP	0.715 ± 0.092
